Test results from patent publication US8697386B2, “Methods and compositions for modulating hepsin activation of macrophage-stimulating protein” (Genentech, Inc., priority 2009, dated 2014).
“Also recorded” adds a separate entry of the source.

T1: human Ron (Homo sapiens, UniProt Q04912)
T1 construct: the Ron (Sema IPT1)-IgG fusion protein was captured
T1 sequence (Q04912 25-683 limits assumed): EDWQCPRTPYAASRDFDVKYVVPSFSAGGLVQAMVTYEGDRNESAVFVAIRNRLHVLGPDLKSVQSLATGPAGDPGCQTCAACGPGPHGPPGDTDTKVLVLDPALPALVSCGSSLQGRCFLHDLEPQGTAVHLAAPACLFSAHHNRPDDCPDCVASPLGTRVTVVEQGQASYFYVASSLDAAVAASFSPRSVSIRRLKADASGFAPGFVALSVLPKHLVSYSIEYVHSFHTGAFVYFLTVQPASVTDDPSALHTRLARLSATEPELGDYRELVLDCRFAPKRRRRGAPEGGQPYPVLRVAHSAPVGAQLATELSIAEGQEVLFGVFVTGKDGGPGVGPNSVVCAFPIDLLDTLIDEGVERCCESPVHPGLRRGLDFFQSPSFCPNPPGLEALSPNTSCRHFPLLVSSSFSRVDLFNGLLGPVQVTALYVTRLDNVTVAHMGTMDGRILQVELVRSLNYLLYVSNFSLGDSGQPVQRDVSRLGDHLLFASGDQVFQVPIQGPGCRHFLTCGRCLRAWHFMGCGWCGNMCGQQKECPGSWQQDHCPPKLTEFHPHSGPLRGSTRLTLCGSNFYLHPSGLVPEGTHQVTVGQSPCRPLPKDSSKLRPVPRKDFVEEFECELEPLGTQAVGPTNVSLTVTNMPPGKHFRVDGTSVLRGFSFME

B1: commercially available MSP: recombinant active form of human MSP (R&D Systems) (protein)
chain 1: QRSPLNDFQVLRGTELQHLLHAVVPGPWQEDVADAEECAGRCGPLMDCRAFHYNVSSHGCQLLPWTQHSPHTRLRRSGRCDLFQKKDYVRTCIMNNGVGYRGTMATTVGGLPCQAWSHKFPNDHKYTPTLRNGLEENFCRNPDGDPGGPWCYTTDPAVRFQSCGIKSCREAACVWCNGEEYRGAVDRTESGRECQRWDLQHPHQHPFEPGKFLDQGLDDNYCRNPDGSERPWCYTTDPQIEREFCDLPRCGSEAQPRQEATTVSCFRGKGEGYRGTANTTTAGVPCQRWDAQIPHQHRFTPEKYACKDLRENFCRNPDGSEAPWCFTLRPGMRAAFCYQIRRCTDDVRPQDCYHGAGEQYRGTVSKTRKGVQCQRWSAETPHKPQFTFTSEPHAQLEENFCRNPDGDSHGPWCYTMDPRTPFDYCALRRCADDQPPSILDPPDQVQFEKCGKRVDRLDQRRSKLR
chain 2: VVGGHPGNSPWTVSLRNRQGQHFCGGSLVKEQWILTARQCFSSCHMPLTGYEVWLGTLFQNPQHGEPSLQRVPVAKMVCGPSGSQLVLLKLERSVTLNQRVALICLPPEWYVVPPGTKCEIAGWGETKGTGNDTVLNVALLNVISNQECNIKHRGRVRESEMCTEGLLAPVGACEGDYGGPLACFTHNCWVLEGIIIPNRVCARSRWPAVFTRVSVFVDWIHKVMRLG
B2: pro-MSP-R483E: pro-MSP mutated to render it uncleavable at Arg483-Val484 (protein)
chain: QRSPLNDFQVLRGTELQHLLHAVVPGPWQEDVADAEECAGRCGPLMDCRAFHYNVSSHGCQLLPWTQHSPHTRLRRSGRCDLFQKKDYVRTCIMNNGVGYRGTMATTVGGLPCQAWSHKFPNDHKYTPTLRNGLEENFCRNPDGDPGGPWCYTTDPAVRFQSCGIKSCREAACVWCNGEEYRGAVDRTESGRECQRWDLQHPHQHPFEPGKFLDQGLDDNYCRNPDGSERPWCYTTDPQIEREFCDLPRCGSEAQPRQEATTVSCFRGKGEGYRGTANTTTAGVPCQRWDAQIPHQHRFTPEKYACKDLRENFCRNPDGSEAPWCFTLRPGMRAAFCYQIRRCTDDVRPQDCYHGAGEQYRGTVSKTRKGVQCQRWSAETPHKPQFTFTSEPHAQLEENFCRNPDGDSHGPWCYTMDPRTPFDYCALRRCADDQPPSILDPPDQVQFEKCGKRVDRLDQRRSKLEVVGGHPGNSPWTVSLRNRQGQHFCGGSLVKEQWILTARQCFSSCHMPLTGYEVWLGTLFQNPQHGEPSLQRVPVAKMVCGPSGSQLVLLKLERSVTLNQRVALICLPPEWYVVPPGTKCEIAGWGETKGTGNDTVLNVALLNVISNQECNIKHRGRVRESEMCTEGLLAPVGACEGDYGGPLACFTHNAWVLEGIIIPNRVCARSRWPAVFTRVSVFVDWIHKVMRLG
B3: pro-MSP: inactive single-chain precursor of MSP; recombinant human MSP with C672A mutation expressed in Chinese Hamster Ovary cells (protein, listed as Homo sapiens)
chain: MGWLPLLLLLTQCLGVPGQRSPLNDFQVLRGTELQHLLHAVVPGPWQEDVADAEECAGRCGPLMDCRAFHYNVSSHGCQLLPWTQHSPHTRLRRSGRCDLFQKKDYVRTCIMNNGVGYRGTMATTVGGLPCQAWSHKFPNDHKYTPTLRNGLEENFCRNPDGDPGGPWCYTTDPAVRFQSCGIKSCREAACVWCNGEEYRGAVDRTESGRECQRWDLQHPHQHPFEPGKFLDQGLDDNYCRNPDGSERPWCYTTDPQIEREFCDLPRCGSEAQPRQEATTVSCFRGKGEGYRGTANTTTAGVPCQRWDAQIPHQHRFTPEKYACKDLRENFCRNPDGSEAPWCFTLRPGMRAAFCYQIRRCTDDVRPQDCYHGAGEQYRGTVSKTRKGVQCQRWSAETPHKPQFTFTSEPHAQLEENFCRNPDGDSHGPWCYTMDPRTPFDYCALRRCADDQPPSILDPPDQVQFEKCGKRVDRLDQRRSKLRVVGGHPGNSPWTVSLRNRQGQHFCGGSLVKEQWILTARQCFSSCHMPLTGYEVWLGTLFQNPQHGEPSLQRVPVAKMVCGPSGSQLVLLKLERSVTLNQRVALICLPPEWYVVPPGTKCEIAGWGETKGTGNDTVLNVALLNVISNQECNIKHRGRVRESEMCTEGLLAPVGACEGDYGGPLACFTHNAWVLEGIIIPNRVCARSRWPAVFTRVSVFVDWIHKVMRLG

Assays:
human Ron = target: T1, human Ron; assay: Binding to Ron by surface plasmon resonance (BIAcore); settings: SPR; for detectable binding to Ron: up to a concentration of 1 μM
Method: Binding of hepsin-activated pro-MSP to Ron by surface plasmon resonance and ELISA: To determine binding affinity of hepsin-activated MSP to human Ron, surface plasmon resonance measurements on a BIAcore™-3000 instrument (GE Health Care, NJ) were performed. Rabbit anti-human IgG were chemically immobilized (amine coupling) on CM5 biosensor chips and the Ron (Sema IPT1)-IgG fusion protein was captured to give approximately 250 response units (RU). For kinetics measurements, different concentration of either hepsin-activated MSP or a commercially available MSP (R&D systems) were injected in HBS-P buffer at 25° C. with a flow rate of 30 μl/min. Association rates (kon) and dissociation rates (koff) were obtained by using a simple one-to-one Langmuir binding model (BIA-Evaluation) and the equilibrium dissociation constants (KD) were calculated (koff/kon). For ELISA experiments, maxiSorp microtiter plates (Nunc, Roskilde, Denmark) were coated overnight at 4° C. with 2 μg/ml of rabbit anti-human IgG Fc specific antibody (Jackson ImmunoResearch Laboratory, West Grove, Pa.) in 50 mM sodium carbonate buffer, pH 9.6. After blocking with assay buffer (PBS pH 7.4, 0.5% BSA and 0.05% Tween-20, 15 PPM Proclin), 1 μg/ml Ron (Sema IPT1)-IgG fusion protein was added and plates were incubated for 1 hour with gentle shaking at room temperature. After washing with wash buffer (PBS, 0.05% polysorbate 20), His tagged MSP proteins were added for 1 hour. Bound MSP was detected using anti-His-HRP (Qiagen, Valencia, Calif.) followed by addition of TMB/H2O2 substrate (KPL, Gaithersburg, Md.). The reaction was stopped with 1M H3PO4 and the A450 was measured on a Molecular Devices (Sunnyvale, Calif.) SpectraMax Plus^384 microplate reader. The effective concentration to give half-maximal binding (EC50) was determined by a four parameter fit using Kaleidagraph (Synergy Software, Reading, Pa.).

hepsin = target: T2, hepsin (Homo sapiens, UniProt P05981); assay: In vitro activation of pro-MSP by recombinant hepsin (SDS-PAGE); assay type: biochemical; settings: 25 μg/ml substrate, hepsin 1.25-10 nM, 37° C., SDS-PAGE reducing; mutant up to 24 hours
T2 construct: The extracellular domain of the human recombinant hepsin was expressed and purified as described; made in house
T2 sequence (P05981 45-417 limits assumed): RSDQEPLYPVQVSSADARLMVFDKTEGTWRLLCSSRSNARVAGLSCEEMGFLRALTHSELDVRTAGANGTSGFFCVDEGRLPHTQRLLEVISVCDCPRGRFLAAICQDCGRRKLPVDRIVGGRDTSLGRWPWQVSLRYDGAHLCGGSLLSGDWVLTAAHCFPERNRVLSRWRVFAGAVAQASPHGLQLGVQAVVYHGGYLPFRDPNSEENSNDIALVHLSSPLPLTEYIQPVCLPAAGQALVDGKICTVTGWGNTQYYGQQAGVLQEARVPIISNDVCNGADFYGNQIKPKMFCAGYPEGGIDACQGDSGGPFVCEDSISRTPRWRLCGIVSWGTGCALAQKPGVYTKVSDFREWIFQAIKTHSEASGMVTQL
Method: Analysis of in vitro activation of pro-msp by hepsin using sds-page: Pro-MSP (25 μg/ml) was incubated with different concentrations of hepsin (1.25 nM, 2.5 nM, 5 nM and 10 nM) in a buffer containing 50 mM Tris-HCl pH 8.0, 150 mM NaCl, 0.05% Triton-X100 and 2 mM CaCl2 at 37° C. Aliquots of the reaction mixture at different time points were mixed 6×-SDS sample buffer and the samples were boiled for 5 minutes at 95° C. and separated by SDS-PAGE using a 4-20% gradient gel. Protein was visualized after staining with SimplyBlue Safe Stain (Invitrogen, Carlsbad, Calif.). Similar experiments were performed with the pro-MSP that was mutated to render it uncleavable at Arg483-Val484(pro-MSP-R483E) to assess if proteolytic cleavage site occurs at a different site apart from the expected Arg483-Val484 bond in pro-MSP.

Ron signaling pathway = assay: Immunoblot for phosphorylated downstream kinases in A2780 cells overexpressing human Ron; assay type: cell-based; settings: pro-MSP 10 and 50 ng/ml, 10 nM hepsin, 1 hour
Method: Immunoblot for the detection of phosphorylated kinases: A human ovarian carcinoma cell line (A2780) overexpressing human Ron was used to study the phosphorylation of Ron and other downstream kinase. Cells at a density of 2×10^5 cells/well were cultured in 12-well plate and serum-starved for 24 hours. The cells were then stimulated with either pro-MSP (10 and 50 ng/ml) alone or in presence of 10 nM Hepsin for 1 hour. Mature MSP from a commercial source and hepsin were used as controls. Samples were prepared by washing cells twice with cold PBS followed by addition of 200 ul lysis buffer. Samples were then analyzed by SDS/PAGE on 4-12% Tris-glycine gels (Invitrogen, Carlsbad, Calif.). Proteins were transferred onto nitrocellulose membranes and subsequently treated with anti-Ron antibody or anti-phospho-AKT antibody or anti-phospho-MAPK antibody or anti-phospho-S6 antibody, overnight at 4° C. After washing, membranes were incubated with IRDye800-conjugated goat anti-mouse IgG (Rockland, Gilbertsville, Pa.) and AlexaFluor 680 goat anti-rabbit IgG (Invitrogen) for 1 h. Proteins were detected with the Odyssey Infrared Imaging System (LI-COR Biosciences, Lincoln, Nebr.).

bone marrow macrophages = assay: Inhibition of nitric oxide (NO) synthesis in bone marrow macrophages; assay type: cell-based, mouse; settings: MSP/pro-MSP 10 ng/ml, hepsin 1 nM, 24 hours, Griess reaction
Method: Inhibition of NO synthesis by mature MSP: Bone marrow cells obtained from collected mouse femurs were pipetted to a single-cell suspension and then spun down. Red blood cells were lysed by incubation with erythrocyte lysis buffer for 5 minutes at room temperature. Cells were then suspended in macrophage differentiation medium (DMEM with glutamine containing 10% FBS, Pen/Strep and 50 ng/ml recombinant mCSF-1). Cells were then plated onto sterile 24-well non-tissue culture dishes. Medium was changed the next day and subsequently every 2 days. After 6 days in culture, the macrophages were mature and these mature cells were washed in serum-free DMEM and further incubated for 2 hours. Different reactions (total volume 300 μL) as indicated in the figure consisting of recombinant MSP (10 ng/ml), pro-MSP (10 ng/ml), hepsin (1 nM) and Fab25 (500 nM) were added to the respective wells and cultured for 24 hours at 37° C. in a tissue culture incubator. NO production was quantified using Griess reaction (Molecular Probes) according to manufacturer's recommendation.

| Molecule | Kd (human Ron; Ron-Fc captured on CM5 chip, 1:1 binding model, 25° C., read-out: KD, binding affinity to Ron) [nM] | proteolytic cleavage/activation by hepsin (hepsin) | detectable binding to Ron (human Ron) | phosphorylation of MAP kinase and S6 kinase (activation of Ron signaling pathway) (Ron signaling pathway) | effect on NO production in response to LPS (bone marrow macrophages) |
| --- | --- | --- | --- | --- | --- |
| B1 | 4.4 |  |  |  |  |
| B2 |  | did not cleave | Neither pro-MSP nor the cleavage site mutant (pro-MSP-R483E) had any detectable binding |  |  |
| B3 |  | activated pro-MSP in a dose-dependent and time dependent manner | Neither pro-MSP nor the cleavage site mutant (pro-MSP-R483E) had any detectable binding; also recorded: No detectable binding | Neither hepsin nor pro-MSP alone was effective | did not inhibit |
